Results as given in PMC12101500, “Mechanism of D-type cyclin recognition by the AMBRA1 E3 ligase receptor” (Science Advances, 2025).
One block for each molecule: values may come before it. Where no end group is shown, it is not given here. [ ]: non-standard residue; d: D form. pT = C[C@@H](OP(=O)(O)O)[C@H](N)C(=O)O

Legend:
[1] = molecular target: DDB1-AMBRA1^WD40 complex (human) (UniProt Q9C0C7); assay: ITC; peptide (100 μM) titrated into AMBRA1^WD40-DDB1 complex (10 μM); 25°C; 50 mM Hepes pH 7.4, 200 mM NaCl, 2 mM MgCl2, 1 mM TCEP; single-site binding model
DDB1-AMBRA1 WD40 = DDB1-AMBRA1 WD40 (Homo sapiens, UniProt Q16531); assay: ITC
[2] = molecular target: T1, TSF–cyclin D1 (full-length) (human, UniProt P24385 1-295, phosphothreonine at 286 (found in the reconstituted complex by Western blotting and MS)); assay: cryo-EM structure; DDB1–AMBRA1^WD40–cyclin D1–CDK4EE complex co-expressed in Expi293F and purified (MBP beads, TEV, Strep-tactin, Superdex 200); 0.3 mg/ml; 3.55 Å; settings: both partners purified
T1 construct: cyclin D1, human; also called Twin-Strep-FLAG–cyclin D1; source: Expi293F, co-transfected; in lysate (pull-downs) and purified in complexes (MBP or GST beads, TEV digestion, Strep-tactin, Superdex 200); not shown: Twin-Strep-FLAG (TSF), N-terminal, kept
T1 sequence (P24385 whole entry): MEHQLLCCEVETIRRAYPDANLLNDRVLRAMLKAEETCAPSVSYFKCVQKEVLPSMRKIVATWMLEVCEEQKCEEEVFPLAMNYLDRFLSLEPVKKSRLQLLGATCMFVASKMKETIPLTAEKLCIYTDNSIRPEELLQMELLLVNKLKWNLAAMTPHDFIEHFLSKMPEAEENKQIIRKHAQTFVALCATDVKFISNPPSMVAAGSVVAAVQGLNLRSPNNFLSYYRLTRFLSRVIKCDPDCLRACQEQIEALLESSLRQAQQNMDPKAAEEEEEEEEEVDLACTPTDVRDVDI

Kd [1]: 210 nM
Molecule: T286-phosphorylated cyclin D1 peptide (residues 284 to 295)

Kd (DDB1-AMBRA1 WD40): ~200 nM
Molecule: Ac-AC[pT]PTDVRDVDI [cyclin D1 284-295]

binding result [2]: binds
B1: AMBRA1^WD40 (residues M1 to N204 directly fused to S853 to G1044), MBP removed (domain or fragment, human, UniProt Q9C0C7 1-204, looked up)
chain: MKVVPEKNAVRILWGRERGARAMGAQRLLQELVEDKTRWMKWEGKRVELPDSPRSTFLLAFSPDRTLLASTHVNHNIYITEVKTGKCVHSLIGHRRTPWCVTFHPTISGLIASGCLDGEVRIWDLHGGSESWFTDSNNAIASLAFHPTAQLLLIATANEIHFWDWSRREPFAVVKTASEMERVRLVRFDPLGHYLLTAIVNPSNSNIANTTYRLQWWDFTKFDLPEISNASVNVLVQNCKIYNDASCDISADGQLLAAFIPSSQRGFPDEGILAVYSLAPHNLGEMLYTKRFGPNAISVSLSPMGRYVMVGLASRRILLHPSTEHMVAQVFRLQQAHGGETSMRRVFNVLYPMPADQRRHVSINSARWLPEPGLGLAYGTNKGDLVICRPEALNSG
notes: AMBRA1, human, residues M1 to N204, directly fused to S853; AMBRA1, human, residues S853 to G1044; Same construct as m5, after TEV digestion; the gene was codon optimized; also called AMBRA1 WD40 domain; AMBRA1^WD40 WT; source: Expi293F, co-expressed, purified in complex (MBP beads, TEV digestion, Strep-tactin and/or Superdex 200); not shown: MBP, N-terminal, cleaved
